The values that follow come from patent US20140221283A1 (INDIANA UNIVERSITY RESEARCH AND TECHNOLOGY, published 2014).

*1 amine or outer side, *2 acyl side, *3 side chain or, on linkers, in order; H or OH if unused. Where no end group is shown, it is not given here. Side-chain parts run from the residue outwards. [ ]: non-standard residue; d: D form. The star is where a group is joined. γGlu = O=C(O)[C@H](CCC(=O)[*:2])N[*:1]; Palmitoyl = CCCCCCCCCCCCCCCC(=O)*; Met(O) = CS(=O)CC[C@H](N)C(=O)O; Aib = CC(C)(N)C(=O)O

The target of the assay is T1, GIP receptor (assay by the procedure of Example 3).
T1 sequence (P48546 whole entry, species assumed, looked up): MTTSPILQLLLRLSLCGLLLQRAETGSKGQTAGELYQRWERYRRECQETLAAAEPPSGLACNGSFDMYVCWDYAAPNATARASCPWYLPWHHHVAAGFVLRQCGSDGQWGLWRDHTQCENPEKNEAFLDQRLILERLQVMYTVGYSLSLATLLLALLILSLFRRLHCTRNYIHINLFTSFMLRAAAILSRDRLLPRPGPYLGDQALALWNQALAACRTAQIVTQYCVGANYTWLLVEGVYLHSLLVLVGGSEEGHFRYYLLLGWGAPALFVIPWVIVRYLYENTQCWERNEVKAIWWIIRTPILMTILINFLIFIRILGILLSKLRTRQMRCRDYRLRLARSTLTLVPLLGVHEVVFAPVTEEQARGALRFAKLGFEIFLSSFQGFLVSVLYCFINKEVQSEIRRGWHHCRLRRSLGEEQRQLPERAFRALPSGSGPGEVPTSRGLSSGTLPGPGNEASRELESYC
Briefly: cell-based or functional assay.

B1: peptide of SEQ ID NO: 13 (peptide)
peptide: H[Aib]QGTFTSDYSKYLDERRA[Aib]EFVC(40K‑TE PEG)WLLDTK[γGlu]-NH2
B1: the “EC50 (nM) at GIP receptor (procedure of Example 3)” value (“EC50 (nM) at GIP receptor” for short) turned out to be 140 nM.

B2: peptide of SEQ ID NO: 16 (peptide)
peptide: H[Aib]QGTFTSDK([γGlu-γGlu-Palmitoyl])SKYLD[Aib]RAAQDFVQWLLDTKQ-OH
modifications: N-terminus assumed
SMILES: CCCCCCCCCCCCCCCC(=O)N[C@@H](CCC(=O)N[C@@H](CCC(=O)NCCCC[C@H](NC(=O)[C@H](CC(=O)O)NC(=O)[C@H](CO)NC(=O)[C@@H](NC(=O)[C@H](Cc1ccccc1)NC(=O)[C@@H](NC(=O)CNC(=O)[C@H](CCC(N)=O)NC(=O)C(C)(C)NC(=O)[C@@H](N)Cc1c[nH]cn1)[C@@H](C)O)[C@@H](C)O)C(=O)N[C@@H](CO)C(=O)N[C@@H](CCCCN)C(=O)N[C@@H](Cc1ccc(O)cc1)C(=O)N[C@@H](CC(C)C)C(=O)N[C@@H](CC(=O)O)C(=O)NC(C)(C)C(=O)N[C@@H](CCCNC(=N)N)C(=O)N[C@@H](C)C(=O)N[C@@H](C)C(=O)N[C@@H](CCC(N)=O)C(=O)N[C@@H](CC(=O)O)C(=O)N[C@@H](Cc1ccccc1)C(=O)N[C@H](C(=O)N[C@@H](CCC(N)=O)C(=O)N[C@@H](Cc1c[nH]c2ccccc12)C(=O)N[C@@H](CC(C)C)C(=O)N[C@@H](CC(C)C)C(=O)N[C@@H](CC(=O)O)C(=O)N[C@H](C(=O)N[C@@H](CCCCN)C(=O)N[C@@H](CCC(N)=O)C(=O)O)[C@@H](C)O)C(C)C)C(=O)O)C(=O)O
As to B2, the “EC50 (nM) at GIP receptor” value was determined as 1.04 nM.

B3: peptide of SEQ ID NO: 15 (peptide)
peptide: H[Aib]QGTFTSDK([γGlu-γGlu-Palmitoyl])SKYLD[Aib]RAAQDFVQWL[Met(O)]DTKQ-OH
modifications: not fully specified; printed as HaibQGTFTSDK(γGlu-γGlu-C16)SKYLDaibRAAQDFVQWLMornDTKQ-acid
On to B3, for which the “EC50 (nM) at GIP receptor” value came out at 1.9 nM.

B4: peptide of SEQ ID NO: 12 (peptide)
peptide: H[Aib]QGTFTSDK([γGlu-γGlu-Palmitoyl])SKYLD[Aib]RAAQDFVQWLMDTK[γGlu]-NH2
For B4, the “EC50 (nM) at GIP receptor” value amounted to 12.8 nM.

B5: peptide of SEQ ID NO: 14 (peptide)
peptide: HSQGTFTSDKSKYLDERAAQDFVQWLLDTKX
modifications: lower-case 's' at position 2 (taken as D-Ser; the table does not explain it); Lys at position 10 acylated as K(γGlu-C16); C-terminal γGlu; C-terminal amide
Regarding B5, the “EC50 (nM) at GIP receptor” value stood at 976 nM.
